Earlier results, collected in paper PMC12669185.

Biological target: CCR2 (Homo sapiens) (UniProt P41597)
Sequence of UniProt P41597 (P41597 whole entry): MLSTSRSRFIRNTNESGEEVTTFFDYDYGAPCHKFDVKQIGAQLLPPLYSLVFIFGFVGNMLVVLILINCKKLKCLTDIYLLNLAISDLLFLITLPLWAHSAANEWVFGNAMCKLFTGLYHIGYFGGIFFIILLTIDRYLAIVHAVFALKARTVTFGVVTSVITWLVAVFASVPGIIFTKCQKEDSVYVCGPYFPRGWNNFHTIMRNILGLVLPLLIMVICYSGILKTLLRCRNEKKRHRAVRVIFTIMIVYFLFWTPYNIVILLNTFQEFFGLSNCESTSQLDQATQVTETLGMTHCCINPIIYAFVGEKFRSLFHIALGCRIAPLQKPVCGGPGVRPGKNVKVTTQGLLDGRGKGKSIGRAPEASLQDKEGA

For CCL2 (from UniProt P13500), the Kd is given as 770 pM.
